Measured values published in article PMC8292550, “Molecular characterization of direct interactions between MPP1 and flotillins” (Scientific Reports, 2021).

T1: full length recombinant MPP1 (human, UniProt Q00013 1-466)
T1 construct: MPP1 (p55), human erythroid, full length; also called p55; MPP1(p55)
T1 sequence (looked up): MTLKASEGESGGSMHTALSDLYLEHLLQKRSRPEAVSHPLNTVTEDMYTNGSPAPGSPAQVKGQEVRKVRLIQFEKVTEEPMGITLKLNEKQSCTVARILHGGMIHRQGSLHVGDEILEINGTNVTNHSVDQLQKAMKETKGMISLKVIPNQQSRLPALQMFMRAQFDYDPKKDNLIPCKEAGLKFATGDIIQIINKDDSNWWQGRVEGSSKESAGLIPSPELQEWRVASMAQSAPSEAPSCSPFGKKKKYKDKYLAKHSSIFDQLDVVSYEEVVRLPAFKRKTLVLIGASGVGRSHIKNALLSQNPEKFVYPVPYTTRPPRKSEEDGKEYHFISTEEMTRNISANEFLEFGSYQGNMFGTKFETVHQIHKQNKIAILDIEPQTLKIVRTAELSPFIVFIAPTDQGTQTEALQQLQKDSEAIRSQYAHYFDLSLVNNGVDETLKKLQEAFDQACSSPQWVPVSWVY

B1: recombinant His-tagged flotillin 2 (natural protein, UniProt Q14254 1-428, looked up)
chain: MGNCHTVGPNEALVVSGGCCGSDYKQYVFGGWAWAWWCISDTQRISLEIMTLQPRCEDVETAEGVALTVTGVAQVKIMTEKELLAVACEQFLGKNVQDIKNVVLQTLEGHLRSILGTLTVEQIYQDRDQFAKLVREVAAPDVGRMGIEILSFTIKDVYDKVDYLSSLGKTQTAVVQRDADIGVAEAERDAGIREAECKKEMLDVKFMADTKIADSKRAFELQKSAFSEEVNIKTAEAQLAYELQGAREQQKIRQEEIEIEVVQRKKQIAVEAQEILRTDKELIATVRRPAEAEAHRIQQIAEGEKVKQVLLAQAEAEKIRKIGEAEAAVIEAMGKAEAERMKLKAEAYQKYGDAAKMALVLEALPQIAAKIAAPLTKVDEIVVLSGDNSKVTSEVNRLLAELPASVHALTGVDLSKIPLIKKATGVQV
notes: flotillin 2; also called FL2
B2: endogenous MPP1 (HEL cells) (natural protein)
chain: T1 sequence (looked up)
B3: recombinant His-tagged flotillin 1 (natural protein, UniProt O75955-1 1-427, looked up)
chain: MFFTCGPNEAMVVSGFCRSPPVMVAGGRVFVLPCIQQIQRISLNTLTLNVKSEKVYTRHGVPISVTGIAQVKIQGQNKEMLAAACQMFLGKTEAEIAHIALETLEGHQRAIMAHMTVEEIYKDRQKFSEQVFKVASSDLVNMGISVVSYTLKDIHDDQDYLHSLGKARTAQVQKDARIGEAEAKRDAGIREAKAKQEKVSAQYLSEIEMAKAQRDYELKKAAYDIEVNTRRAQADLAYQLQVAKTKQQIEEQRVQVQVVERAQQVAVQEQEIARREKELEARVRKPAEAERYKLERLAEAEKSQLIMQAEAEAASVRMRGEAEAFAIGARARAEAEQMAKKAEAFQLYQEAAQLDMLLEKLPQVAEEISGPLTSANKITLVSSGSGTMGAAKVTGEVLDILTRLPESVERLTGVSISQVNHKPLRTA
notes: flotillin 1; the discussion speaks of bacterially expressed proteins; also called FL1
B4: MPP1-Mut2 (residues 151–237) (domain or fragment, human, UniProt Q00013 151-237, looked up)
chain: NQQSRLPALQMFMRAQFDYDPKKDNLIPCKEAGLKFATGDIIQIINKDDSNWWQGRVEGSSKESAGLIPSPELQEWRVASMAQSAPS
notes: MPP1 (p55), human, residues 151-237
B5: MPP1-Mut4 (residues 231–466) (domain or fragment, human, UniProt Q00013 231-466, looked up)
chain: MAQSAPSEAPSCSPFGKKKKYKDKYLAKHSSIFDQLDVVSYEEVVRLPAFKRKTLVLIGASGVGRSHIKNALLSQNPEKFVYPVPYTTRPPRKSEEDGKEYHFISTEEMTRNISANEFLEFGSYQGNMFGTKFETVHQIHKQNKIAILDIEPQTLKIVRTAELSPFIVFIAPTDQGTQTEALQQLQKDSEAIRSQYAHYFDLSLVNNGVDETLKKLQEAFDQACSSPQWVPVSWVY
notes: MPP1 (p55), human, residues 231-466; A FLAG form (p3XFLAG-CMV-10) was expressed in HEL cells for the functional tests only
B6: MPP1-Mut3 (residues 211–292) (domain or fragment, human, UniProt Q00013 211-292, looked up)
chain: SKESAGLIPSPELQEWRVASMAQSAPSEAPSCSPFGKKKKYKDKYLAKHSSIFDQLDVVSYEEVVRLPAFKRKTLVLIGASG
notes: MPP1 (p55), human, residues 211-292

Columns and labels:
[1] = target: T1, full length recombinant MPP1; test: SPR; His-tagged flotillin 1 or 2 captured on a Ni-NTA sensor chip (about 4000 RU), BIAcore T200; untagged MPP1 or its truncated mutants as analytes (at least five concentrations, 50-2000 nM), association 360 s, dissociation 600 s; HBS-T; global fit, 1:1 Langmuir model with mass transport step; settings: both partners purified
[2] = target: flotillins (endogenous, HEL cells)
[3] = target: flotillins (endogenous, HEL cells); remark: listed apart in the source
[4] = target: B1; test: SPR; His-tagged flotillin 1 or 2 captured on a Ni-NTA sensor chip (about 4000 RU), BIAcore T200; untagged MPP1 or its truncated mutants as analytes (at least five concentrations, 50-2000 nM), association 360 s, dissociation 600 s; HBS-T; global fit, 1:1 Langmuir model with mass transport step; settings: both partners purified
[5] = target: B3; test: as above; settings: both partners purified
[6] = target: B1; test: as above; settings: both partners purified; remark: listed apart in the source

Kd [1] [nM] | koff [1] [s⁻¹] | kon [1] [M⁻¹ s⁻¹] | fluorescence lifetime of di-4-ANEPPDHQ (FLIM) in the plasma membrane of HEL cells transfected with MPP1-Mut4-FLAG (~ 3.83 ns) compared to FLAG control (~ 3.98 ns) [2] [ns] | reduction of the pERK1/2 level after insulin stimulation in HEL cells transfected with MPP1-Mut4 compared to FLAG control [3] [%] | Kd [4] [nM] | Kd [5] [nM] | koff [5] [s⁻¹] | kon [5] [M⁻¹ s⁻¹] | Kd [6] [nM] | koff [6] [s⁻¹] | kon [6] [M⁻¹ s⁻¹] | Binder
31 | 0.00128 | 41300 | – | – | – | – | – | – | – | – | – | B1
– | – | – | 0.15 | 46 | – | – | – | – | – | – | – | B2
22.8 | 0.00103 | 45000 | – | – | – | – | – | – | – | – | – | B3
– | – | – | – | – | 686 | 702 | 0.00118 | 1680 | 982 | 0.0016 | 1630 | B4
– | – | – | – | – | – | 39.2 | 0.000319 | 8130 | 50.2 | 0.000281 | 5600 | B5
– | – | – | – | – | – | 137 | 0.000515 | 3750 | 199 | 0.000828 | 4170 | B6
